Experimental data taken from publication PMC6838674, “Apelin-36-[L28A] and Apelin-36-[L28C(30kDa-PEG)] peptides that improve diet induced obesity are G protein biased ligands at the apelin receptor” (Peptides, 2019).

Molecular target: T1, apelin receptor (Rattus norvegicus), Q9JHG3
T1 chain: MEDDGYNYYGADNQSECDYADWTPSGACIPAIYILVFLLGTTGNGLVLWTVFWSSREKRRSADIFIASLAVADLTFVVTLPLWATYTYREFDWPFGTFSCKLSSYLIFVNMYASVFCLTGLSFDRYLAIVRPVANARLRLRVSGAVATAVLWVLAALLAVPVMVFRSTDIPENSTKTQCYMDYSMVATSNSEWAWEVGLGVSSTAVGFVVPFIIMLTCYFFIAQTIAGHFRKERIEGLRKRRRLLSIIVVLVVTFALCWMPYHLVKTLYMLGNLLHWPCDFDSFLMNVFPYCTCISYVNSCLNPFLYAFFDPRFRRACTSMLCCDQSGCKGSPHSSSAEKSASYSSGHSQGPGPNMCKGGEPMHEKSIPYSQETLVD
Assay: radioligand competition binding, heart homogenate
Details: modification not given

Ki: 8.71 nM
B1: apelin-36-[L28C(30kDa-PEG)] (peptide)
chain: LVQPRGSRNGPGPWQGGRRKFRRQRPRCSHKGPMPF
